Assay results taken from publication PMC3839853 (FEBS Open Bio, 2013).

Target: the molecule itself
Test: crystal structure

B1: Recombinant wild-type Phanerochaete chrysosporium pyranose 2-oxidase (PcP2O_(RECWT)), full-length residues 1-621 with N-terminal T7-epitope tag and C-terminal … (enzyme, UniProt Q6QWR1 10-621, looked up)
chain: ADEPYDVFIAGSGPIGATFAKLCVDANLRVCMVEIGAADSFTSKPMKGDPNAPRSVQFGPGQVPIPGYHKKNEIEYQKDIDRFVNVIKGALSTCSIPTSNNHIATLDPSVVSNSLDKPFISLGKNPAQNPFVNLGAEAVTRGVGGMSTHWTCATPEFFAPADFNAPHRERPKLSTDAAEDARIWKDLYAQAKEIIGTSTTEFDHSIRHNLVLRKYNDIFQKENVIREFSPLPLACHRLTDPDYVEWHATDRILEELFTDPVKRGRFTLLTNHRCTKLVFKHYRPGEENEVDYALVEDLLPHMQNPGNPASVKKIYARSYVVACGAVATAQVLANSHIPPDDVVIPFPGGEKGSGGGERDATIPTPLMPMLGKYITEQPMTFCQVVLDSSLMEVVRNPPWPGLDWWKEKVARHVEAFPNDPIPIPFRDPEPQVTIKFTEEHPWHVQIHRDAFSYGAVAENMDTRVIVDYRFFGYTEPQEANELVFQQHYRDAYDMPQPTFKFTMSQDDRARARRMMDDMCNIALKIGGYLPGSEPQFMTPGLALHLAGTTRCGLDTQKTVGNTHCKVHNFNNLYVGGNGVIETGFAANPTLTSICYAIRASNDIIAKFGRHRG
- stoichiometry N: 4
